According to the Human Domainome abundance scans (Beltran et al. 2025):
± gives the uncertainty stated by the source.

Assay: abundance fitness (aPCA) (normalised: wild type 0, dead -1); higher = more abundant; growth selection in yeast, the domain comes from the species named
Settings: Homo sapiens

Point of comparison: “NEDD4-like E3 ubiquitin-protein ligase WWP2 T470A, O00308”, abundance fitness -0.265 ± 0.035. Against it:
- NEDD4-like E3 ubiquitin-protein ligase WWP2 T469Y, O00308 — within error, -0.264 ± 0.062
- NEDD4-like E3 ubiquitin-protein ligase WWP2 T470C, O00308 — within error, -0.164 ± 0.069
- NEDD4-like E3 ubiquitin-protein ligase WWP2 T470D, O00308 — lower, -0.653 ± 0.072
- NEDD4-like E3 ubiquitin-protein ligase WWP2 T470E, O00308 — within error, -0.218 ± 0.068
- NEDD4-like E3 ubiquitin-protein ligase WWP2 T470I, O00308 — lower, -0.734 ± 0.15
- NEDD4-like E3 ubiquitin-protein ligase WWP2 T470K, O00308 — lower, -0.356 ± 0.039
- NEDD4-like E3 ubiquitin-protein ligase WWP2 T470L, O00308 — lower, -0.437 ± 0.04
- NEDD4-like E3 ubiquitin-protein ligase WWP2 T470M, O00308 — lower, -0.398 ± 0.048
- NEDD4-like E3 ubiquitin-protein ligase WWP2 T470N, O00308 — within error, -0.383 ± 0.11
- NEDD4-like E3 ubiquitin-protein ligase WWP2 T470P, O00308 — lower, -0.906 ± 0.14
- NEDD4-like E3 ubiquitin-protein ligase WWP2 T470Q, O00308 — lower, -0.42 ± 0.056
- NEDD4-like E3 ubiquitin-protein ligase WWP2 T470R, O00308 — lower, -0.446 ± 0.044
- NEDD4-like E3 ubiquitin-protein ligase WWP2 T470S, O00308 — within error, -0.234 ± 0.036
- NEDD4-like E3 ubiquitin-protein ligase WWP2 T470V, O00308 — within error, -0.263 ± 0.046
- NEDD4-like E3 ubiquitin-protein ligase WWP2 T470Y, O00308 — lower, -0.772 ± 0.12
- NEDD4-like E3 ubiquitin-protein ligase WWP2 T471A, O00308 — lower, -0.725 ± 0.064
- NEDD4-like E3 ubiquitin-protein ligase WWP2 T471C, O00308 — lower, -0.59 ± 0.1
- NEDD4-like E3 ubiquitin-protein ligase WWP2 T471D, O00308 — lower, -0.647 ± 0.057
- NEDD4-like E3 ubiquitin-protein ligase WWP2 T471E, O00308 — lower, -0.975 ± 0.11
- NEDD4-like E3 ubiquitin-protein ligase WWP2 T471F, O00308 — lower, -0.556 ± 0.09
- NEDD4-like E3 ubiquitin-protein ligase WWP2 T471G, O00308 — lower, -0.673 ± 0.052
- NEDD4-like E3 ubiquitin-protein ligase WWP2 T471H, O00308 — within error, -0.259 ± 0.057
- NEDD4-like E3 ubiquitin-protein ligase WWP2 T471I, O00308 — lower, -0.701 ± 0.05
- NEDD4-like E3 ubiquitin-protein ligase WWP2 T471K, O00308 — lower, -0.734 ± 0.065
- NEDD4-like E3 ubiquitin-protein ligase WWP2 T471L, O00308 — lower, -0.887 ± 0.043
- NEDD4-like E3 ubiquitin-protein ligase WWP2 T471M, O00308 — lower, -0.798 ± 0.094
- NEDD4-like E3 ubiquitin-protein ligase WWP2 T471N, O00308 — lower, -0.81 ± 0.12
- NEDD4-like E3 ubiquitin-protein ligase WWP2 T471P, O00308 — lower, -1.15 ± 0.13
- NEDD4-like E3 ubiquitin-protein ligase WWP2 T471Q, O00308 — within error, -0.291 ± 0.073
- NEDD4-like E3 ubiquitin-protein ligase WWP2 T471R, O00308 — lower, -0.62 ± 0.05
- NEDD4-like E3 ubiquitin-protein ligase WWP2 T471V, O00308 — lower, -0.546 ± 0.054
- NEDD4-like E3 ubiquitin-protein ligase WWP2 T471W, O00308 — lower, -0.521 ± 0.05
- NEDD4-like E3 ubiquitin-protein ligase WWP2 T471Y, O00308 — lower, -0.786 ± 0.14
- NEDD4-like E3 ubiquitin-protein ligase WWP2 T483A, O00308 — higher, -0.041 ± 0.034
- NEDD4-like E3 ubiquitin-protein ligase WWP2 T483C, O00308 — higher, -0.005 ± 0.063
- NEDD4-like E3 ubiquitin-protein ligase WWP2 T483D, O00308 — higher, -0.039 ± 0.06
- NEDD4-like E3 ubiquitin-protein ligase WWP2 T483E, O00308 — higher, -0.032 ± 0.057
- NEDD4-like E3 ubiquitin-protein ligase WWP2 T483F, O00308 — lower, -0.377 ± 0.072
- NEDD4-like E3 ubiquitin-protein ligase WWP2 T483G, O00308 — higher, -0.01 ± 0.032
- NEDD4-like E3 ubiquitin-protein ligase WWP2 T483I, O00308 — higher, -0.056 ± 0.038
- NEDD4-like E3 ubiquitin-protein ligase WWP2 T483K, O00308 — higher, 0.084 ± 0.071
- NEDD4-like E3 ubiquitin-protein ligase WWP2 T483L, O00308 — higher, -0.039 ± 0.044
- NEDD4-like E3 ubiquitin-protein ligase WWP2 T483M, O00308 — higher, -0.073 ± 0.055
- NEDD4-like E3 ubiquitin-protein ligase WWP2 T483N, O00308 — within error, -0.247 ± 0.076
- NEDD4-like E3 ubiquitin-protein ligase WWP2 T483P, O00308 — higher, -0.054 ± 0.071
- NEDD4-like E3 ubiquitin-protein ligase WWP2 T483Q, O00308 — higher, -0.106 ± 0.071
- NEDD4-like E3 ubiquitin-protein ligase WWP2 T483R, O00308 — higher, -0.121 ± 0.056
- NEDD4-like E3 ubiquitin-protein ligase WWP2 T483S, O00308 — higher, 0.004 ± 0.042
- NEDD4-like E3 ubiquitin-protein ligase WWP2 T483V, O00308 — higher, -0.03 ± 0.052
- NEDD4-like E3 ubiquitin-protein ligase WWP2 T483W, O00308 — higher, -0.163 ± 0.063
- NEDD4-like E3 ubiquitin-protein ligase WWP2 T483Y, O00308 — higher, -0.123 ± 0.059
- NEDD4-like E3 ubiquitin-protein ligase WWP2 V459A, O00308 — higher, -0.107 ± 0.051
- NEDD4-like E3 ubiquitin-protein ligase WWP2 V459C, O00308 — higher, -0.11 ± 0.065
- NEDD4-like E3 ubiquitin-protein ligase WWP2 V459D, O00308 — higher, 0.05 ± 0.062
- NEDD4-like E3 ubiquitin-protein ligase WWP2 V459E, O00308 — higher, 0.085 ± 0.036
- NEDD4-like E3 ubiquitin-protein ligase WWP2 V459F, O00308 — within error, -0.387 ± 0.094
- NEDD4-like E3 ubiquitin-protein ligase WWP2 V459G, O00308 — higher, -0.111 ± 0.051
- NEDD4-like E3 ubiquitin-protein ligase WWP2 V459H, O00308 — higher, -0.103 ± 0.064
- NEDD4-like E3 ubiquitin-protein ligase WWP2 V459I, O00308 — higher, -0.106 ± 0.072
- NEDD4-like E3 ubiquitin-protein ligase WWP2 V459K, O00308 — higher, -0.077 ± 0.063
- NEDD4-like E3 ubiquitin-protein ligase WWP2 V459L, O00308 — higher, -0.073 ± 0.04
- NEDD4-like E3 ubiquitin-protein ligase WWP2 V459M, O00308 — higher, -0.07 ± 0.05
- NEDD4-like E3 ubiquitin-protein ligase WWP2 V459N, O00308 — higher, -0.024 ± 0.076
